Experimental findings from patent US5817516, “Methods for proliferating and differentiating B cells with high density membrane CD40 ligand” (Boehringer Ingelheim Pharmaceuticals, Inc., dated 1998) are described below.

For the experiment, the target named is CD40 on human B cells (human, UniProt P25942). The experiment can be described thus: cell-based or functional assay.

B1: high density, membrane bound mouse CD40 ligand (ligand)
chain: MIETYSQPSPRSVATGLPASMKIFMYLLTVFLITQMIGSVLFAVYLHRRLDKVEEEVNLHEDFVFIKKLKRCNKGEGSLSLLNCEEMRRQFEDLVKDITLNKEEKKENSFEMQRGDEDPQIAAHVVSEANSNAASVLQWAKKGYYTMKSNLVMLENGKQLTVKREGLYYVYTQVTFCSNREPSSQRPFIVGLWLKPSSGSERILLKAANTHSSSQLCEQQSVHLGGVFELQAGASVFVNVTEASQVIHRVGFSSFGLLKL
For the molecule B1, the “expansion of human B cells grown with hdmb CD40 ligand as described for the mouse cells” value is ~100 fold.
